We go through two substances from publication PMC10847504.

The assay deals with CNOT1 of the CCR4-NOT complex, endogenous. Kind of assay: GFP-trap pull-down, Western blot quantification. Particulars: lentivirally transduced neurons, read off a plot.
[1] abbreviates: NMDA 3 min, 10 min incubation after NMDA washout, parent: est. 1.4.
The mark [2] stands for this setting: vehicle (no NMDA) 3 min, 10 min incubation after washout, parent: est. 0.94.

As for “GFP-Ago2(WT) (from UniProt Q9UKV8) S387A”, the ratio to parent runs as follows: under setting [1], 0.81; under setting [2], 0.75.
As for “GFP-Ago2(WT) (from UniProt Q9UKV8) S387D”, the ratio to parent was determined as 1.3 under setting [1] and 1.3 under setting [2].
